Source: patent US20260001928A1 (CORTERIA PHARMACEUTICALS, priority 2022, published 2026)
*1 amine or outer side, *2 acyl side, *3 side chain or, on linkers, in order; H or OH if unused. Where no end group is shown, it is not given here. Side-chain parts run from the residue outwards. [ ]: non-standard residue; d: D form. The star is where a group is joined. C18 diacid = O=C(O)CCCCCCCCCCCCCCCCC(=O)*; C16 diacid = O=C(O)CCCCCCCCCCCCCCC(=O)*; γGlu = O=C(O)[C@H](CCC(=O)[*:2])N[*:1]; NMeI = CC[C@H](C)[C@H](NC)C(=O)O; Pentanoyl = CCCCC(=O)*; AEEA = NCCOCCOCC(=O)O; Aib = CC(C)(N)C(=O)O

T1: CRF1R receptor (UniProt P34998 24-415, limits assumed)
T1 sequence (looked up): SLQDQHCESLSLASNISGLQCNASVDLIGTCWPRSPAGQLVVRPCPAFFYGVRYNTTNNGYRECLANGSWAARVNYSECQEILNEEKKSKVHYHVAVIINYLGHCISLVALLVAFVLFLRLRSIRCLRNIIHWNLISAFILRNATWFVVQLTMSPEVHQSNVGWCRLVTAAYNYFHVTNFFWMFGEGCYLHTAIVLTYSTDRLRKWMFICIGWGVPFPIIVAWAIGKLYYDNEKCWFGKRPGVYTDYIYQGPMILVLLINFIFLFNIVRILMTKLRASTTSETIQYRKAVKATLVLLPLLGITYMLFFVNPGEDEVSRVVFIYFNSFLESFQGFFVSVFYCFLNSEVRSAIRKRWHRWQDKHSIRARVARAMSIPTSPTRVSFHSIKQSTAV

B1: SEQ ID NO 31 (peptide)
peptide: [NMeI]VLSLD[dV]PIKLK([AEEA-AEEA-γGlu-γGlu-C18 diacid])QILLKQERQKKQREQAEKN[Aib]QILEQV-NH2
modifications: N-terminus assumed
SMILES: CC[C@H](C)[C@H](NC)C(=O)N[C@H](C(=O)N[C@@H](CC(C)C)C(=O)N[C@@H](CO)C(=O)N[C@@H](CC(C)C)C(=O)N[C@@H](CC(=O)O)C(=O)N[C@@H](C(=O)N1CCC[C@H]1C(=O)N[C@H](C(=O)N[C@@H](CCCCN)C(=O)N[C@@H](CC(C)C)C(=O)N[C@@H](CCCCNC(=O)COCCOCCNC(=O)COCCOCCNC(=O)CC[C@H](NC(=O)CC[C@H](NC(=O)CCCCCCCCCCCCCCCCC(=O)O)C(=O)O)C(=O)O)C(=O)N[C@@H](CCC(N)=O)C(=O)N[C@H](C(=O)N[C@@H](CC(C)C)C(=O)N[C@@H](CC(C)C)C(=O)N[C@@H](CCCCN)C(=O)N[C@@H](CCC(N)=O)C(=O)N[C@@H](CCC(=O)O)C(=O)N[C@@H](CCCNC(=N)N)C(=O)N[C@@H](CCC(N)=O)C(=O)N[C@@H](CCCCN)C(=O)N[C@@H](CCCCN)C(=O)N[C@@H](CCC(N)=O)C(=O)N[C@@H](CCCNC(=N)N)C(=O)N[C@@H](CCC(=O)O)C(=O)N[C@@H](CCC(N)=O)C(=O)N[C@@H](C)C(=O)N[C@@H](CCC(=O)O)C(=O)N[C@@H](CCCCN)C(=O)N[C@@H](CC(N)=O)C(=O)NC(C)(C)C(=O)N[C@@H](CCC(N)=O)C(=O)N[C@H](C(=O)N[C@@H](CC(C)C)C(=O)N[C@@H](CCC(=O)O)C(=O)N[C@@H](CCC(N)=O)C(=O)N[C@H](C(N)=O)C(C)C)[C@@H](C)CC)[C@@H](C)CC)[C@@H](C)CC)C(C)C)C(C)C
B2: SEQ ID NO 32 (peptide)
peptide: Pentanoyl-VLSLD[dV]PIKLK([AEEA-AEEA-γGlu-γGlu-C18 diacid])QILLKQERQKKQREQAEKN[Aib]QILEQV-NH2
SMILES: CCCCC(=O)N[C@H](C(=O)N[C@@H](CC(C)C)C(=O)N[C@@H](CO)C(=O)N[C@@H](CC(C)C)C(=O)N[C@@H](CC(=O)O)C(=O)N[C@@H](C(=O)N1CCC[C@H]1C(=O)N[C@H](C(=O)N[C@@H](CCCCN)C(=O)N[C@@H](CC(C)C)C(=O)N[C@@H](CCCCNC(=O)COCCOCCNC(=O)COCCOCCNC(=O)CC[C@H](NC(=O)CC[C@H](NC(=O)CCCCCCCCCCCCCCCCC(=O)O)C(=O)O)C(=O)O)C(=O)N[C@@H](CCC(N)=O)C(=O)N[C@H](C(=O)N[C@@H](CC(C)C)C(=O)N[C@@H](CC(C)C)C(=O)N[C@@H](CCCCN)C(=O)N[C@@H](CCC(N)=O)C(=O)N[C@@H](CCC(=O)O)C(=O)N[C@@H](CCCNC(=N)N)C(=O)N[C@@H](CCC(N)=O)C(=O)N[C@@H](CCCCN)C(=O)N[C@@H](CCCCN)C(=O)N[C@@H](CCC(N)=O)C(=O)N[C@@H](CCCNC(=N)N)C(=O)N[C@@H](CCC(=O)O)C(=O)N[C@@H](CCC(N)=O)C(=O)N[C@@H](C)C(=O)N[C@@H](CCC(=O)O)C(=O)N[C@@H](CCCCN)C(=O)N[C@@H](CC(N)=O)C(=O)NC(C)(C)C(=O)N[C@@H](CCC(N)=O)C(=O)N[C@H](C(=O)N[C@@H](CC(C)C)C(=O)N[C@@H](CCC(=O)O)C(=O)N[C@@H](CCC(N)=O)C(=O)N[C@H](C(N)=O)C(C)C)[C@@H](C)CC)[C@@H](C)CC)[C@@H](C)CC)C(C)C)C(C)C
B3: SEQ ID NO 42 (peptide)
peptide: Ac-IVLSLD[dV]PIKLK([AEEA-AEEA-γGlu-C16 diacid])KILLEQEKQKKQREQAETN[Aib]QILAQV-NH2
SMILES: CC[C@H](C)[C@H](NC(C)=O)C(=O)N[C@H](C(=O)N[C@@H](CC(C)C)C(=O)N[C@@H](CO)C(=O)N[C@@H](CC(C)C)C(=O)N[C@@H](CC(=O)O)C(=O)N[C@@H](C(=O)N1CCC[C@H]1C(=O)N[C@H](C(=O)N[C@@H](CCCCN)C(=O)N[C@@H](CC(C)C)C(=O)N[C@@H](CCCCNC(=O)COCCOCCNC(=O)COCCOCCNC(=O)CC[C@H](NC(=O)CCCCCCCCCCCCCCC(=O)O)C(=O)O)C(=O)N[C@@H](CCCCN)C(=O)N[C@H](C(=O)N[C@@H](CC(C)C)C(=O)N[C@@H](CC(C)C)C(=O)N[C@@H](CCC(=O)O)C(=O)N[C@@H](CCC(N)=O)C(=O)N[C@@H](CCC(=O)O)C(=O)N[C@@H](CCCCN)C(=O)N[C@@H](CCC(N)=O)C(=O)N[C@@H](CCCCN)C(=O)N[C@@H](CCCCN)C(=O)N[C@@H](CCC(N)=O)C(=O)N[C@@H](CCCNC(=N)N)C(=O)N[C@@H](CCC(=O)O)C(=O)N[C@@H](CCC(N)=O)C(=O)N[C@@H](C)C(=O)N[C@@H](CCC(=O)O)C(=O)N[C@H](C(=O)N[C@@H](CC(N)=O)C(=O)NC(C)(C)C(=O)N[C@@H](CCC(N)=O)C(=O)N[C@H](C(=O)N[C@@H](CC(C)C)C(=O)N[C@@H](C)C(=O)N[C@@H](CCC(N)=O)C(=O)N[C@H](C(N)=O)C(C)C)[C@@H](C)CC)[C@@H](C)O)[C@@H](C)CC)[C@@H](C)CC)C(C)C)C(C)C
B4: SEQ ID NO 5 (peptide)
peptide: [NMeI]VLSLD[dV]PIKLK([γGlu-C16 diacid])QILLKQERQKKQREQAEKNKQILEQV-NH2
modifications: N-terminus assumed
SMILES: CC[C@H](C)[C@H](NC)C(=O)N[C@H](C(=O)N[C@@H](CC(C)C)C(=O)N[C@@H](CO)C(=O)N[C@@H](CC(C)C)C(=O)N[C@@H](CC(=O)O)C(=O)N[C@@H](C(=O)N1CCC[C@H]1C(=O)N[C@H](C(=O)N[C@@H](CCCCN)C(=O)N[C@@H](CC(C)C)C(=O)N[C@@H](CCCCNC(=O)CC[C@H](NC(=O)CCCCCCCCCCCCCCC(=O)O)C(=O)O)C(=O)N[C@@H](CCC(N)=O)C(=O)N[C@H](C(=O)N[C@@H](CC(C)C)C(=O)N[C@@H](CC(C)C)C(=O)N[C@@H](CCCCN)C(=O)N[C@@H](CCC(N)=O)C(=O)N[C@@H](CCC(=O)O)C(=O)N[C@@H](CCCNC(=N)N)C(=O)N[C@@H](CCC(N)=O)C(=O)N[C@@H](CCCCN)C(=O)N[C@@H](CCCCN)C(=O)N[C@@H](CCC(N)=O)C(=O)N[C@@H](CCCNC(=N)N)C(=O)N[C@@H](CCC(=O)O)C(=O)N[C@@H](CCC(N)=O)C(=O)N[C@@H](C)C(=O)N[C@@H](CCC(=O)O)C(=O)N[C@@H](CCCCN)C(=O)N[C@@H](CC(N)=O)C(=O)N[C@@H](CCCCN)C(=O)N[C@@H](CCC(N)=O)C(=O)N[C@H](C(=O)N[C@@H](CC(C)C)C(=O)N[C@@H](CCC(=O)O)C(=O)N[C@@H](CCC(N)=O)C(=O)N[C@H](C(N)=O)C(C)C)[C@@H](C)CC)[C@@H](C)CC)[C@@H](C)CC)C(C)C)C(C)C

Target: human corticotropin-releasing factor 2a (CRF2a receptor) (human), Q13324
Test: cell-based or functional assay

Sequence of human corticotropin-releasing factor 2a (CRF2a receptor) (human), Q13324 (Q13324 20-411): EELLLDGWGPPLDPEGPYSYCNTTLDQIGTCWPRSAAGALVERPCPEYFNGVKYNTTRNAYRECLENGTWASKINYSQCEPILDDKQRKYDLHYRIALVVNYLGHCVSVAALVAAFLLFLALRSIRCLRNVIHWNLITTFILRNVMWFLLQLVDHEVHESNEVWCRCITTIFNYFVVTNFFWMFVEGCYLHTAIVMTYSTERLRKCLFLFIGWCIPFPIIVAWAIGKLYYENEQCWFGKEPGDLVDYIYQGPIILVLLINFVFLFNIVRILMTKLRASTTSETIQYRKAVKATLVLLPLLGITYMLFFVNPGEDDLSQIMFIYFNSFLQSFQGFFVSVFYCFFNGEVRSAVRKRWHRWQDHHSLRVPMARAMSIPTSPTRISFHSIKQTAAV

| Binder | EC50 [nM] (cAMP) |
| --- | --- |
| B1 | 0.23 |
| B2 | 1.04 |
| B3 | 3.08 |
| B4 | 0.09 |

Target: T1, CRF1R receptor
Test: cell-based or functional assay

| Binder | EC50 [nM] | Emax (% I) [%] |
| --- | --- | --- |
| B1 | > 250 | 14 |
| B2 | > 250 | 5 |
| B3 | – | 1 |
| B4 | 158 | 48 |
